Data reported in the supplement of paper PMC7877785.
± gives the uncertainty stated by the source.

Assay: self-splicing fitness, log relative to wild type (ln ratio); higher = more splicing; Tetrahymena group I intron in knt gene, E. coli kanamycin selection, DiMSum; sequences stand for … in CUCUCU…GGAGGGAAAAGUUAUCAGGCAUGCACCUGGUAGCUAGUCUUUAAACCAAUAGAUUGCAUCGGUUUAAAAGGCAAGACCGUCAAAUUGCGGGAAAGGGGUCAACAGCCGUUCAGUACCAAGUCUCAGGGGAAACUUUGAGAUGGCCUUGCAAAGGGUAUGGUAAUAAGCUGACGGACAUGGUCCUAACCACGCAGCCAAGUCCUAAGUCAACAGAUCUUCUGUUGAUAUGGAUGCAGUUCACAGACUAAAUGUCGGUCGGGGAAGAUGUAUUCUUCUCAUAAGAUAUAGUCGGACCUCUCCUUAAUGGGAGCUAGCGGAUGAAGUGAUGCAACACUGGAGCCGCUGGGAACUAAUUUGUAUGCGAAAGUAUAUUGAUUAGUUUUGGAGUACUCGUGGUCG
Method in brief: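 Six replicate transformations of E. coli BL21(DE3) with a pET-22b(+) library were grown overnight at 37°C or 30°C. The library randomised all eight P1ex-region intron nucleotides, the intron lying in the knt kanamycin-resistance gene, and plates were LB agar with or without 25 μg/mL kanamycin plus 100 μg/mL carbenicillin, 50 μM IPTG and 0.2% rhamnose. Pooled colonies were amplicon-sequenced on an Illumina HiSeq 2500, and fitness is the DiMSum error-weighted combination of wild-type-normalised replicate fold changes, kanamycin versus none.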

Row | Sequence | self-splicing fitness (ln) (30 °C) | self-splicing fitness (ln) (37 °C)
1 | UAACAGCAAUAUUACGAUUC | -1.68 ± 0.1 | -1.01 ± 0.12
2 | CCUGAGCAAUAUUACGAAUU | -2.96 ± 0.2 | -2.15 ± 0.31
3 | GUAAAGCAAUAUUACGUUAG | -1.01 ± 0.057 | -0.896 ± 0.076
4 | GUGCAGCAAUAUUACGGCGU | -1.58 ± 0.096 | -1.93 ± 0.17
5 | AGAAAGCAAUAUUACGGUAU | -2.66 ± 0.14 | -0.578 ± 0.12
6 | CAACAGCAAUAUUACGAGCC | -3.76 ± 0.46 | -1.95 ± 0.29
7 | GAGCAGCAAUAUUACGUAGC | -0.99 ± 0.11 | -1.65 ± 0.13
8 | UCCCAGCAAUAUUACGCUUC | -2.73 ± 0.19 | -2.76 ± 0.48
9 | CGUCAGCAAUAUUACGAUAU | -2.13 ± 0.13 | -0.978 ± 0.13
10 | ACAAAGCAAUAUUACGUUUG | -2.98 ± 0.1 | -1.65 ± 0.12
11 | UAGAAGCAAUAUUACGUGGU | -3.52 ± 0.2 | -2.54 ± 0.18
12 | CGCUAGCAAUAUUACGGGAG | -2.79 ± 0.1 | -1.43 ± 0.082
13 | AACAAGCAAUAUUACGCUCU | -0.638 ± 0.075 | 0.0475 ± 0.089
14 | UCUUAGCAAUAUUACGUGAC | -2.81 ± 0.18 | -3.32 ± 0.4
15 | GAAGAGCAAUAUUACGAUGG | -3.18 ± 0.17 | -2.1 ± 0.23
16 | ACUAAGCAAUAUUACGAUGC | -1.53 ± 0.091 | -0.792 ± 0.11
17 | AUACAGCAAUAUUACGCUCG | -0.288 ± 0.12 | -0.205 ± 0.15
18 | GUCGAGCAAUAUUACGUACU | -2.83 ± 0.29 | -0.966 ± 0.21
19 | CGGCAGCAAUAUUACGAGCC | -2.78 ± 0.24 | -1.37 ± 0.21
20 | CGAUAGCAAUAUUACGCUGC | -3.15 ± 0.36 | -2.21 ± 0.5
21 | CUAGAGCAAUAUUACGUGCG | -0.299 ± 0.083 | -0.255 ± 0.098
22 | CCCAAGCAAUAUUACGAAAA | -2.96 ± 0.21 | -2.1 ± 0.22
23 | GAAAAGCAAUAUUACGCUGC | -3.12 ± 0.24 | -1.61 ± 0.39
24 | CCUCAGCAAUAUUACGGGCC | -4.31 ± 0.3 | -2.77 ± 0.36

Row | Sequence | self-splicing fitness (ln) (30 °C) | self-splicing fitness (ln) (37 °C)
25 | AAUAAGCAAUAUUACGCUUA | -3.19 ± 0.26 | -1.74 ± 0.22
26 | GAGCAGCAAUAUUACGUCGC | -2.31 ± 0.14 | -1.47 ± 0.15
27 | GCGUAGCAAUAUUACGGGGU | -3.95 ± 0.19 | -1.86 ± 0.12
28 | GCAUAGCAAUAUUACGGGUA | -0.992 ± 0.12 | -1.11 ± 0.11
29 | ACCAAGCAAUAUUACGGUAA | -2.9 ± 0.14 | -2.02 ± 0.12
30 | UACAAGCAAUAUUACGACAA | -0.986 ± 0.11 | -0.403 ± 0.11
31 | UACUAGCAAUAUUACGCUCA | -0.532 ± 0.095 | 0.288 ± 0.13
32 | CAGCAGCAAUAUUACGAAGU | -2.46 ± 0.14 | -2.03 ± 0.24
33 | CUGCAGCAAUAUUACGCCCA | – | -1.31 ± 0.49
34 | CGUAAGCAAUAUUACGGCGG | -0.217 ± 0.072 | -0.126 ± 0.096
35 | UAUAAGCAAUAUUACGGGCG | -0.413 ± 0.14 | 0.339 ± 0.17
36 | GAAGAGCAAUAUUACGGUCG | -3.24 ± 0.13 | -1.61 ± 0.15
37 | UGCGAGCAAUAUUACGGUAA | -2.4 ± 0.17 | -2.22 ± 0.16
38 | AAGAAGCAAUAUUACGCUAU | -3.04 ± 0.17 | -1.44 ± 0.17
39 | GAUAAGCAAUAUUACGAAGC | -2.17 ± 0.28 | -0.18 ± 0.21
40 | GAGCAGCAAUAUUACGUUCU | – | -2.48 ± 0.26
41 | GUAAAGCAAUAUUACGCACA | 0.186 ± 0.082 | 0.579 ± 0.11
42 | AUGGAGCAAUAUUACGGUAU | -3.49 ± 0.16 | -1.32 ± 0.1
43 | GUUUAGCAAUAUUACGCUGU | -1.52 ± 0.12 | -2 ± 0.14
44 | ACUAAGCAAUAUUACGGCGA | -0.131 ± 0.1 | -0.411 ± 0.13
45 | UUGUAGCAAUAUUACGUAGA | -2.75 ± 0.13 | -1.23 ± 0.12
46 | GCCUAGCAAUAUUACGGCAG | -2.72 ± 0.19 | -2.18 ± 0.42
47 | UCUGAGCAAUAUUACGGUCC | -2.51 ± 0.25 | –
48 | CGUAAGCAAUAUUACGAGGG | -2.74 ± 0.19 | -1.86 ± 0.24
